Measurements reported in PMC10845952, “Mass spectrometry and split luciferase complementation assays reveal the MecA protein interactome of Streptococcus mutans” (Microbiology Spectrum, 2024).

T1: MecA fused to the RenG N-terminal domain (1-155) (S. mutans, UniProt Q8DW33 1-240)
T1 construct: adaptor protein MecA; S. mutans UA159; source: S. mutans, expressed in live cells; not shown: RenG luciferase N-terminal domain (1-155), C-terminal, kept
T1 sequence: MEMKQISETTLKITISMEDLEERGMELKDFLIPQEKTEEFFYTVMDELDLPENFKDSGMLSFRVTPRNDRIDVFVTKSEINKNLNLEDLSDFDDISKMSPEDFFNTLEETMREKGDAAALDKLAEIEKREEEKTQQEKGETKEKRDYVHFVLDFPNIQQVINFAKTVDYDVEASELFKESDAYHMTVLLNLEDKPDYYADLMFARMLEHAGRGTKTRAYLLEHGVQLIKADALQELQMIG


Molecular target: T1, MecA fused to the RenG N-terminal …
Assay: split reporter (BiFC, NanoBiT)
Settings: partners not purified

Binder | relative binding affinity (%)
DnaG with the RenG C-terminal domain (156-314) fused to its N-terminus (natural protein, S. mutans, UniProt Q8DUS6 1-592, looked up, also called N-DnaG) MVVDKEKIKEIKDSINIVDVIGEVVSLSRSGRNYLGLCPFHKEKTPSFNVIEDRQFFHCFGCGRSGDVFKFVEDYRNISFLESVQVLAERSGINVTLQDKSQEVKKEHPHQKLFNINGDANKFYQAVLKTTKVGETARQYLYERGLTDELITYFKIGLAPNEYDYLYQAMLKKYDEDTIINSGLFNLSDSNSIYDAFRNRIMFPLTDEFGHIIGFSGRIWTEEDTSKKLAKYKNTRSTIIFNKSYELYHLDKARTAAKKEHELYLMEGFMDVIAAYRAGIPNAVASMGTALTPEHVKHLRKFTKKVILTYDGDKAGQNAIAKSLNLLSNMAVEIVRIPGQMDPDEFIKENSEEELEKLLKQARISSAEFWIEHLKPENIDNLQAEIDYVEKIAKVIAASPSITAQNTYINKVAEFLPDFDYLQVEQAVNNERLQMRSQISEQESANQQVLIDLPVTKQLTALTKAESQLFHRLLHHDYLLNEFRNRAHFKFTTPELQELYQILKTNGEINAYDLSQLSNQLQETYYRVLEENLPEEIAEDEIRQIEDQIDKCLQRQEMRKQSKAIRESSNHGDVDTAVEGLAALIAQKRNME | 6.97 ± 0.32%
ThiI fused to the RenG C-terminal domain (156-314) (natural protein, S. mutans, UniProt Q8DUR1 1-405, looked up, tRNA 4-thiouridine(8) synthase, ThiI; S. mutans UA159; also called Thil; not shown: RenG luciferase C-terminal domain (156-314), C-terminal, kept) MQYSEIMVRYGELSTKGKNRMRFINQLKRNMKHVLSIYPEVSIRADRDRAHIYLNGANYVPVAESLKQIFGIQAFSPSYKVEKSVPALEKAVQAIMVELHHEGLTFKISSKRSDHQFELDSRELNQVLGSAVFAVLPDIKAQMNHPNVNLKVEIREEAAYLSYENIKGAGGLPVGTAGKGMLMLSGGIDSPVAGYLALKRGVNIEAVHFASPPYTSPGALKKAQDLTRKLTKFGGNIQFIEVPFTEIQEEIKAKAPEAYLMTLTRRFMMRIADRIREERSGLVIINGESLGQVASQTLESMQAINAVTTTPVIRPVVTMDKLEIIDIAEKIDTFAISIQPFEDCCTIFAPDRPKTNPKIKNVEQYEARLDIEGLVARAVAGINITEITPQEESQDEVDVLIEDLL | 8.92 ± 1.07%
XseA fused to the RenG C-terminal domain (156-314) (natural protein, S. mutans, UniProt Q8DVB5 1-447, looked up, Exodeoxyribonuclease VII large subunit, XseA; S. mutans UA159; not shown: RenG luciferase C-terminal domain (156-314), C-terminal, kept) MSDYLSVSSLTKYLKLKFDRDPYLERVYLTGQVSNFRRRPNHQYFSLKDEKAVIQATMWSGIYRKLGFELEEGMKINVIGRVQLYEPSGSYSIIIEKAEPDGIGALAVQFEQLKKKLAEAGYFDDRHKQRLSQFVKKIGVVTSPSGAVIRDIITTVSRRFPGVDILLFPTKVQGEGAAQEVADNIRLANERTDLDLLIVGRGGGSIEDLWAFNEEIVVQAIFESHLPIISSVGHETDTTLADFAADRRAATPTAAAELATPVTKADLLAFLKERQMRSYQAVMRLIRQKDEQVKKLQRSVIFRQPERLYDAYVQKLDHLRTHLLTKVRQVYDVYDSKEHLLRQRLLSFNLSGCIQRYQAQLKQDQRLLLSHMSSQYDSKLARFEKAQDALLSLDTTRIVARGYAIVQKDNHIIQSTQQIKKGDRLHLEMKDGQVQVEVENVKQEENI | 3.16 ± 0.25%
